According to PMC13426413 (Science Advances, 2026):
Ends that are not written are not given here.

What was measured:
[1] = target: T1, ^19F-labeled Tom70 (5F-tryptophan, residues 108–608) (human, UniProt O94826 108-608, 5-fluoro-tryptophan at W169 and W523); experiment: NMR titration
T1 sequence: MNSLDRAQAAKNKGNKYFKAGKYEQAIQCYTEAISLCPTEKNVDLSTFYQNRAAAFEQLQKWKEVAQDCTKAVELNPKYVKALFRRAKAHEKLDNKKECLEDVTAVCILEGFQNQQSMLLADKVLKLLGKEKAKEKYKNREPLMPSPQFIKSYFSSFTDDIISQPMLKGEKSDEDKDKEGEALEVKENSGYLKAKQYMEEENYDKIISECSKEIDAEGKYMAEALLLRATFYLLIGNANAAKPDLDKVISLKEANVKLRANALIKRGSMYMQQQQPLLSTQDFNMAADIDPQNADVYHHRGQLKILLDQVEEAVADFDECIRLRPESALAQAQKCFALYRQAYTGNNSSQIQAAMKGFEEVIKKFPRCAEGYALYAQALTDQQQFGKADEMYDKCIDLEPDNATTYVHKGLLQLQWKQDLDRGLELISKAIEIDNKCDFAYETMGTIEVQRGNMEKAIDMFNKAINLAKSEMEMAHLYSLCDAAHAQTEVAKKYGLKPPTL

[2] = target: T2, human Tom70 (residues 108–608) (human, UniProt O94826 108-608); experiment: ITC
T2 sequence: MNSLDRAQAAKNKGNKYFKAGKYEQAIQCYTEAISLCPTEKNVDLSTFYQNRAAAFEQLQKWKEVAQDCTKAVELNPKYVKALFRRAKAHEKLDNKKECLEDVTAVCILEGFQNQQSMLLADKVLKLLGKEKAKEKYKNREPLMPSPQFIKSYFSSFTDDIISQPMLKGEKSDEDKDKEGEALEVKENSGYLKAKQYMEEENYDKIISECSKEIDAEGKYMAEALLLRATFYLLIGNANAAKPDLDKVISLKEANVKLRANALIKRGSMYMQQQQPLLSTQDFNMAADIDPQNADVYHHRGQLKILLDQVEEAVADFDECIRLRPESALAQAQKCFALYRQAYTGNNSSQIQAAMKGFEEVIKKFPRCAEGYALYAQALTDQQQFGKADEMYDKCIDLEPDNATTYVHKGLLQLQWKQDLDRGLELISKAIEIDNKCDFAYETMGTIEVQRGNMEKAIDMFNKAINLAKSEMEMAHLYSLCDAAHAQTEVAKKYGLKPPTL

[3] = target: Tom70:Hsp90_(EEVD) complex (human, UniProt O94826 108-608); experiment: ITC
[4] = target: Tom70:Orf9b_(Helix) complex (human | SARS-CoV-2, UniProt O94826 108-608); experiment: ITC
[5] = target: T2, human Tom70 (residues 108–608); experiment: cryo-EM structure
[6] = target: ^19F Tom70:Orf9b_(Helix) complex (human | SARS-CoV-2, UniProt O94826 108-608, 5-fluoro-tryptophan at W169 and W523); experiment: NMR titration

Measured: binding result

IILRLGSPLSLNMARKTLNSLEDKAFQLTPIAVQY [Orf9b_(Helix) peptide]
binds: [1] | [2] | [3]

YDTSRMEEVD-OH [Hsp90_(EEVD) peptide]
binds: [4] | [5] | [6]
